Source: paper PMC9205196 (Nature chemical biology, 2022)

Columns and labels:
Experiment in all cases: AlphaScreen or HTRF
FGFR1, biotinylated [1] = biological target: T1, FGFR1, biotinylated (UniProt P11362 22-822, biotin (sulfo-NHS-biotin))
T1 chain: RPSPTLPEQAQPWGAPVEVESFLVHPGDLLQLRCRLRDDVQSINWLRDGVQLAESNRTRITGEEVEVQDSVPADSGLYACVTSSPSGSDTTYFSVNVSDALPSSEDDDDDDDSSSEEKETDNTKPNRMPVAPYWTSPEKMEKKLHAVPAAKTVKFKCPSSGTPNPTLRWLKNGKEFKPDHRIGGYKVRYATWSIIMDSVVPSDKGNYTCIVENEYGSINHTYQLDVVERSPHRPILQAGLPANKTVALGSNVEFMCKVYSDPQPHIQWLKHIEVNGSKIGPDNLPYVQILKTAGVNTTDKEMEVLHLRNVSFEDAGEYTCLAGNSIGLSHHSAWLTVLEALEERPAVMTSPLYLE

[2] = biological target: Recombinant human FGF2 (fibroblast growth factor-2), biotinylated (human, biotin (sulfo-NHS-biotin))
FGFR1, biotinylated [3] = biological target: T1, FGFR1, biotinylated
[4] = biological target: Vitronectin (VN), biotinylated (UniProt P04004 20-478, biotin (sulfo-NHS-biotin))
Vitronectin (VN), biotinylated, sequence (P04004 20-478): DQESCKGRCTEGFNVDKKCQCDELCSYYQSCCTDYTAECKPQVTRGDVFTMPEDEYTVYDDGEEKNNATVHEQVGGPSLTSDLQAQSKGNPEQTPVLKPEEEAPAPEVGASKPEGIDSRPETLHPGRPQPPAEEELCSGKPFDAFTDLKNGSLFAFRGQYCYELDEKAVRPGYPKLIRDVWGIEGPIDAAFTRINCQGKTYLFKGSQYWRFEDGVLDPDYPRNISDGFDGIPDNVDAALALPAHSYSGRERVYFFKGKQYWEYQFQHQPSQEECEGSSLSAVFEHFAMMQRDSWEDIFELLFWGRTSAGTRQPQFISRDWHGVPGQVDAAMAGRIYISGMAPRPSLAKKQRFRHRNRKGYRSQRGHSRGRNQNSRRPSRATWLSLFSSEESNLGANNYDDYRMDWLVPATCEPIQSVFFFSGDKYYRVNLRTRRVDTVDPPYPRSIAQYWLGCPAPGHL

B1: SDC1_(45,47HEP): murine syndecan-1 ectodomain with heparin conjugated at residues 45 and 47 (domain or fragment)
chain: QIVAVNVPPEDQDGSGDDSDNFYGYGTGALPDTLSRQTPSTWKDVWLLTATPTAPEPTSSNTETAFTSVLPAGEKPEEGEPVLHVEAEPGFTARDKEKEVTTRPRETVQLPITQRASTVRVTTAQAAVTSHPHGGMQPGLHETSAPTAPGQPDHQPPRVEGGGTSVIKEVVEDGTANQLPAGEGSGEQDFTFETSGENTAVAAVEPGLRNQPPVDEGATGASQSLLDRKEVLG
modifications: p-propargyltyrosine (pPY) at 45 and 47, each joined by CuAAC to azido-heparin (azHEP)
Q: For B1, which “EC50 of ternary complex formation with soluble non-tagged FGF2” value (shortened to “EC50 … with soluble non-tagged FGF2”) (FGFR1, biotinylated [1]) is on record?
A: 0.004 nM

Q: What about the EC50 [2] of the same binder?
A: 0.3 nM

Q: What about the EC50 (FGFR1, biotinylated [3]) of the same binder?
A: 0.4 nM

Q: What about the EC50 [4] of the same binder?
A: 0.8 nM

B2: mSDC1: commercial glycosylated, mammalian expressed recombinant mouse SDC1 ectodomain (domain or fragment, UniProt P18828 23-255, looked up)
chain: QIVAVNVPPEDQDGSGDDSDNFSGSGTGALPDTLSRQTPSTWKDVWLLTATPTAPEPTSSNTETAFTSVLPAGEKPEEGEPVLHVEAEPGFTARDKEKEVTTRPRETVQLPITQRASTVRVTTAQAAVTSHPHGGMQPGLHETSAPTAPGQPDHQPPRVEGGGTSVIKEVVEDGTANQLPAGEGSGEQDFTFETSGENTAVAAVEPGLRNQPPVDEGATGASQSLLDRKEVLG
modifications: native GAG chains from the mammalian host (CS predominant over HS by the paper's disaccharide analysis)
Q: For B2, which “EC50 … with soluble non-tagged FGF2” value (FGFR1, biotinylated [1]) is on record?
A: 4 nM

Q: And the EC50 (FGFR1, biotinylated [3])?
A: > 20 nM

Q: What about the EC50 [4] of the same binder?
A: > 100 nM

B3: SDC1_(37,45,47HEP): murine syndecan-1 ectodomain with heparin conjugated at residues 37, 45 and 47 (domain or fragment)
chain: QIVAVNVPPEDQDGYGDDSDNFYGYGTGALPDTLSRQTPSTWKDVWLLTATPTAPEPTSSNTETAFTSVLPAGEKPEEGEPVLHVEAEPGFTARDKEKEVTTRPRETVQLPITQRASTVRVTTAQAAVTSHPHGGMQPGLHETSAPTAPGQPDHQPPRVEGGGTSVIKEVVEDGTANQLPAGEGSGEQDFTFETSGENTAVAAVEPGLRNQPPVDEGATGASQSLLDRKEVLG
modifications: p-propargyltyrosine (pPY) at 37, 45 and 47, each joined by CuAAC to azido-heparin (azHEP)
Q: Which “EC50 … with soluble non-tagged FGF2” value (FGFR1, biotinylated [1]) does the source give for B3 here?
A: 0.008 nM

Q: And the EC50 [2]?
A: 0.3 nM

Q: What about the EC50 (FGFR1, biotinylated [3]) of the same binder?
A: 0.3 nM

Q: And the EC50 [4]?
A: 0.5 nM
